T1: Hof1, Q05080
T1 sequence (Q05080 590-669, looked up): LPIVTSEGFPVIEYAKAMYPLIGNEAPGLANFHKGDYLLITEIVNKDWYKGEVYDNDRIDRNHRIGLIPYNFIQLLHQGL

T2: Lsb3, P43603
T2 sequence (P43603 385-451, looked up): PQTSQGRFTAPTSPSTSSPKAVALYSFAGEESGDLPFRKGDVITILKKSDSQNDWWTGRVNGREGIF

T3: Boi2, P39969
T3 sequence (P39969 32-116, looked up): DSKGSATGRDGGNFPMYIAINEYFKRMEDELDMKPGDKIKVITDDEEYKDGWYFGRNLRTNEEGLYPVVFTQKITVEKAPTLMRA

T4: Cyk3, Q07533
T4 sequence (Q07533 1-83, looked up): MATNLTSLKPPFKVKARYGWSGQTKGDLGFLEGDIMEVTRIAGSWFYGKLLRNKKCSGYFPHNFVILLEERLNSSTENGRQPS

T5: Boi1, P38041
T5 sequence (P38041 1-86, looked up): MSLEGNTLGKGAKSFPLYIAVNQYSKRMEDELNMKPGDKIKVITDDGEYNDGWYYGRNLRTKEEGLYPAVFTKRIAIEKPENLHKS

T6: Cdc25, P04821
T6 sequence (P04821 50-136, looked up): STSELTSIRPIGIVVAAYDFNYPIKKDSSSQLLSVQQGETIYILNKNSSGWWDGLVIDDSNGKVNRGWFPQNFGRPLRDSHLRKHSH

T7: Fus1, P11710
T7 sequence (P11710 432-512, looked up): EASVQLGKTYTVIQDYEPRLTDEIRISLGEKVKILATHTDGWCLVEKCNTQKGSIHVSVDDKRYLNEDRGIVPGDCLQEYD

T8: Lsb1, P53281
T8 sequence (P53281 45-122, looked up): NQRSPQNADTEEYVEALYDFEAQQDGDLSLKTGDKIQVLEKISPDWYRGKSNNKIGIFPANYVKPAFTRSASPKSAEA

T9: Bbc1, P47068
T9 sequence (P47068 1-78, looked up): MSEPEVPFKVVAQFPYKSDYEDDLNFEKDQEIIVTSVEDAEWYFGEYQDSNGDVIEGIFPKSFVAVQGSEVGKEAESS

T10: Bud14, P27637
T10 sequence (P27637 247-328, looked up): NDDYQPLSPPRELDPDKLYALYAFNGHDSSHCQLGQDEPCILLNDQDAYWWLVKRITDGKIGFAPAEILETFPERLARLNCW

T11: Nbp2, Q12163
T11 sequence (Q12163 103-180, looked up): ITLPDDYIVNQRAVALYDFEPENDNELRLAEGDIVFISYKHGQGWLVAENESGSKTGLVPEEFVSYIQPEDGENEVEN

T12: Bzz1-1, P38822
T12 sequence (P38822 478-572, looked up): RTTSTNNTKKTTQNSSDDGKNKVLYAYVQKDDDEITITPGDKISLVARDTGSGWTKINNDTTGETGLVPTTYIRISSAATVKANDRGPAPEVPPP

T13: Pin3, Q06449
T13 sequence (Q06449 53-122, looked up): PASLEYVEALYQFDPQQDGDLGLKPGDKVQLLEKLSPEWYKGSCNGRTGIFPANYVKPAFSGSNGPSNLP

T14: Sla1-3, P32790
T14 sequence (P32790 344-424, looked up): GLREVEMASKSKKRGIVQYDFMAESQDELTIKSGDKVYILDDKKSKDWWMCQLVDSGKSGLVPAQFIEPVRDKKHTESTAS

T15: Sla1-2, P32790
T15 sequence (P32790 60-140, looked up): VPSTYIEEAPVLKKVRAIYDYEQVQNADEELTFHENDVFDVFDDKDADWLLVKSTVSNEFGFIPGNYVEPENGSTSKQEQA

T16: Bzz1-2, P38822
T16 sequence (P38822 568-633, looked up): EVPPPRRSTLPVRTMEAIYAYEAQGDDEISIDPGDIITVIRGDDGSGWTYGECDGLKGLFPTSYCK

T17: Hse1, P38753
T17 sequence (P38753 208-285, looked up): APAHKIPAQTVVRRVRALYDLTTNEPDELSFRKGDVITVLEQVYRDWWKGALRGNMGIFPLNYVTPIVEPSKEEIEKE

T18: Myo5, Q04439
T18 sequence (Q04439 1072-1160, looked up): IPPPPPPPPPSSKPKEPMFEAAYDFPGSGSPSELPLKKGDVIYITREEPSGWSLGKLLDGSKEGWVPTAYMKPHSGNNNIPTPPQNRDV

T19: Lsb4, P32793
T19 sequence (P32793 402-468, looked up): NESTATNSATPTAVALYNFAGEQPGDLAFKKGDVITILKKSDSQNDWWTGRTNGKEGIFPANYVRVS

T20: Abp1, P15891
T20 sequence (P15891 535-592, looked up): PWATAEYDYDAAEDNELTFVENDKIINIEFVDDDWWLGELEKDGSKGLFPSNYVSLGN

T21: Pex13, P80667
T21 sequence (P80667 295-386, looked up): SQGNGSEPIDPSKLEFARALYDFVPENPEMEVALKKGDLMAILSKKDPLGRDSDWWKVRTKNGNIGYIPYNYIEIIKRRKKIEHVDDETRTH

B1: unnamed (peptide)
chain: KTRLRPAFIQQLWSS
B2: unnamed (peptide)
chain: HHNRRKPLEVYFKAT
B3: unnamed (peptide)
chain: SHRLWLYAAPKRPKT
B4: unnamed (peptide)
chain: YHSRRHPLALGFKYV

Target: T1, Hof1, Q05080
Experiment: SPOT array
Details: median of control spots 4086

First: B1
Second: B2
The SPOT intensity of the first is lower: 0 for the first, 12 for the second.

Going from B3 to B4, the SPOT intensity falls from 5 to 0.

Target: T2, Lsb3, P43603
Experiment: SPOT array
Details: median of control spots 406

B1 and B2 are the same in SPOT intensity: 0 for the first, 0 for the second.

First: B3
Second: B4
The SPOT intensity of the first is higher: 5 for the first, 0 for the second.

Target: T3, Boi2, P39969
Experiment: SPOT array
Details: median of control spots 1161

Compared with B1, B2 is higher in SPOT intensity: 0 for the first, 2 for the second.

B3 and B4 are the same in SPOT intensity: 0 for the first, 0 for the second.

Target: T4, Cyk3, Q07533
Experiment: SPOT array
Details: median of control spots 1451

B1 and B2 are the same in SPOT intensity: 3 for the first, 3 for the second.

First: B3
Second: B4
The SPOT intensity of the first is higher: 4 for the first, 3 for the second.

Target: T5, Boi1, P38041
Experiment: SPOT array
Details: median of control spots 1162

Going from B1 to B2, the SPOT intensity falls from 1 to 0.

Going from B3 to B4, the SPOT intensity falls from 1 to 0.

Target: T6, Cdc25, P04821
Experiment: SPOT array
Details: median of control spots 969

Going from B1 to B2, the SPOT intensity falls from 13 to 10.

Going from B3 to B4, the SPOT intensity rises from 5 to 6.

Target: T7, Fus1, P11710
Experiment: SPOT array
Details: median of control spots 1200

Compared with B1, B2 is higher in SPOT intensity: 7 for the first, 565 for the second.

First: B3
Second: B4
The SPOT intensity of the first is higher: 20 for the first, 5 for the second.

Target: T8, Lsb1, P53281
Experiment: SPOT array
Details: median of control spots 388

B1 and B2 are the same in SPOT intensity: 0 for the first, 0 for the second.

B3 and B4 are the same in SPOT intensity: 0 for the first, 0 for the second.

Target: Bem1-2, P29366
Experiment: SPOT array
Details: median of control spots 4347

Sequence of Bem1-2, P29366 (P29366 139-227): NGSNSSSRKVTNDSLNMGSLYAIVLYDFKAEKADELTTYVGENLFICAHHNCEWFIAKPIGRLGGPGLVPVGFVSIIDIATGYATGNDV

First: B1
Second: B2
The SPOT intensity of the first is lower: 0 for the first, 6 for the second.

Compared with B3, B4 is higher in SPOT intensity: 0 for the first, 10 for the second.

Target: T9, Bbc1, P47068
Experiment: SPOT array
Details: median of control spots 796

Going from B1 to B2, the SPOT intensity falls from 17 to 7.

Going from B3 to B4, the SPOT intensity falls from 34 to 2.

Target: T10, Bud14, P27637
Experiment: SPOT array
Details: median of control spots 956

First: B1
Second: B2
The SPOT intensity of the first is lower: 4 for the first, 10 for the second.

First: B3
Second: B4
The SPOT intensity of the first is higher: 5 for the first, 4 for the second.

Target: T11, Nbp2, Q12163
Experiment: SPOT array
Details: median of control spots 357

Compared with B1, B2 is lower in SPOT intensity: 4 for the first, 0 for the second.

Compared with B3, B4 is lower in SPOT intensity: 1 for the first, 0 for the second.

Target: Myo3, P36006
Experiment: SPOT array
Details: median of control spots 468

Compared with B1, B2 is higher in SPOT intensity: 0 for the first, 3 for the second.

Compared with B3, B4 is lower in SPOT intensity: 6 for the first, 1 for the second.

Target: Bem1-1, P29366
Experiment: SPOT array
Details: median of control spots 4282

Sequence of Bem1-1, P29366 (P29366 55-141): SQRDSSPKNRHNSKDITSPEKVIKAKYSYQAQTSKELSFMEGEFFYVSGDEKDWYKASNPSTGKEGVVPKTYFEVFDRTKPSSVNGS

Going from B1 to B2, the SPOT intensity rises from 1 to 43.

B3 and B4 are the same in SPOT intensity: 0 for the first, 0 for the second.

Target: Sho1, P40073
Experiment: SPOT array
Details: median of control spots 1148

Sequence of Sho1, P40073 (P40073 287-367): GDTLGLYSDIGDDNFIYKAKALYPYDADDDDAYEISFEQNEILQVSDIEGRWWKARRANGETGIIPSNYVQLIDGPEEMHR

Compared with B1, B2 is higher in SPOT intensity: 22 for the first, 43 for the second.

Compared with B3, B4 is lower in SPOT intensity: 39 for the first, 7 for the second.

Target: T12, Bzz1-1, P38822
Experiment: SPOT array
Details: median of control spots 4446

Compared with B1, B2 is higher in SPOT intensity: 0 for the first, 3 for the second.

First: B3
Second: B4
The SPOT intensity of the first is higher: 2 for the first, 0 for the second.

Target: T13, Pin3, Q06449
Experiment: SPOT array
Details: median of control spots 2171

Going from B1 to B2, the SPOT intensity rises from 15 to 20.

B3 and B4 are the same in SPOT intensity: 13 for the first, 13 for the second.

Target: GST
Experiment: SPOT array
Details: median of control spots 978

Going from B1 to B2, the SPOT intensity rises from 0 to 1.

B3 and B4 are the same in SPOT intensity: 0 for the first, 0 for the second.

Target: T14, Sla1-3, P32790
Experiment: SPOT array
Details: median of control spots 5475

Compared with B1, B2 is lower in SPOT intensity: 33 for the first, 14 for the second.

Going from B3 to B4, the SPOT intensity falls from 16 to 9.

Target: T15, Sla1-2, P32790
Experiment: SPOT array
Details: median of control spots 712

B1 and B2 are the same in SPOT intensity: 0 for the first, 0 for the second.

Compared with B3, B4 is lower in SPOT intensity: 3 for the first, 0 for the second.

Target: T16, Bzz1-2, P38822
Experiment: SPOT array
Details: median of control spots 4538

B1 and B2 are the same in SPOT intensity: 0 for the first, 0 for the second.

B3 and B4 are the same in SPOT intensity: 0 for the first, 0 for the second.

Target: T17, Hse1, P38753
Experiment: SPOT array
Details: median of control spots 1727

Compared with B1, B2 is higher in SPOT intensity: 5 for the first, 6 for the second.

Compared with B3, B4 is lower in SPOT intensity: 8 for the first, 0 for the second.

Target: T18, Myo5, Q04439
Experiment: SPOT array
Details: median of control spots 471

First: B1
Second: B2
The SPOT intensity of the first is lower: 0 for the first, 1 for the second.

B3 and B4 are the same in SPOT intensity: 0 for the first, 0 for the second.

Target: T19, Lsb4, P32793
Experiment: SPOT array
Details: median of control spots 397

Compared with B1, B2 is higher in SPOT intensity: 0 for the first, 1 for the second.

B3 and B4 are the same in SPOT intensity: 0 for the first, 0 for the second.

Target: Rvs167, P39743
Experiment: SPOT array
Details: median of control spots 2707

Sequence of Rvs167, P39743 (P39743 419-482): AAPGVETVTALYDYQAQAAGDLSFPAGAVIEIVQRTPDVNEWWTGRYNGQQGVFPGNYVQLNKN

Going from B1 to B2, the SPOT intensity rises from 1 to 2.

B3 and B4 are the same in SPOT intensity: 0 for the first, 0 for the second.

Target: T20, Abp1, P15891
Experiment: SPOT array
Details: median of control spots 935

First: B1
Second: B2
The SPOT intensity of the first is higher: 31 for the first, 10 for the second.

First: B3
Second: B4
The SPOT intensity of the first is higher: 47 for the first, 0 for the second.

Target: T21, Pex13, P80667
Experiment: SPOT array
Details: median of control spots 1341

Compared with B1, B2 is higher in SPOT intensity: 7 for the first, 16 for the second.

Compared with B3, B4 is lower in SPOT intensity: 8 for the first, 4 for the second.

— publication PMC2756588
